B1: Tuftelin-interacting protein 11 (Homo sapiens), Q9UBB9 (parent)
chain: MSLSHLYRDGEGRIDDDDDERENFEITDWDLQNEFNPNRQRHWQTKEEATYGVWAERDSDDERPSFGGKRARDYSAPVNFISAGLKKGAAEEAELEDSDDEEKPVKQDDFPKDFGPRKLKTGGNFKPSQKGFAGGTKSFMDFGSWERHTKGIGQKLLQKMGYVPGRGLGKNAQGIINPIEAKQRKGKGAVGAYGSERTTQSMQDFPVVDSEEEAEEEFQKELSQWRKDPSGSKKKPKYSYKTVEELKAKGRISKKLTAPQKELSQVKVIDMTGREQKVYYSYSQISHKHNVPDDGLPLQSQQLPQSGKEAKAPGFALPELEHNLQLLIDLTEQEIIQNDRQLQYERDMVVNLFHELEKMTEVLDHEERVISNLSKVLEMVEECERRMQPDCSNPLTLDECARIFETLQDKYYEEYRMSDRVDLAVAIVYPLMKEYFKEWDPLKDCTYGTEIISKWKSLLENDQLLSHGGQDLSADAFHRLIWEVWMPFVRNIVTQWQPRNCDPMVDFLDSWVHIIPVWILDNILDQLIFPKLQKEVENWNPLTDTVPIHSWIHPWLPLMQARLEPLYSPIRSKLSSALQKWHPSDSSAKLILQPWKDVFTPGSWEAFMVKNIVPKLGMCLGELVINPHQQHMDAFYWVIDWEGMISVSSLVGLLEKHFFPKWLQVLCSWLSNSPNYEEITKWYLGWKSMFSDQVLAHPSVKDKFNEALDIMNRAVSSNVGAYMQPGARENIAYLTHTERRKDFQYEAMQERREAENMAQRGIGVAASSVPMNFKDLIETKAEEHNIVFMPVIGKRHEGKQLYTFGRIVIYIDRGVVFVQGEKTWVPTSLQSLIDMAK
partner: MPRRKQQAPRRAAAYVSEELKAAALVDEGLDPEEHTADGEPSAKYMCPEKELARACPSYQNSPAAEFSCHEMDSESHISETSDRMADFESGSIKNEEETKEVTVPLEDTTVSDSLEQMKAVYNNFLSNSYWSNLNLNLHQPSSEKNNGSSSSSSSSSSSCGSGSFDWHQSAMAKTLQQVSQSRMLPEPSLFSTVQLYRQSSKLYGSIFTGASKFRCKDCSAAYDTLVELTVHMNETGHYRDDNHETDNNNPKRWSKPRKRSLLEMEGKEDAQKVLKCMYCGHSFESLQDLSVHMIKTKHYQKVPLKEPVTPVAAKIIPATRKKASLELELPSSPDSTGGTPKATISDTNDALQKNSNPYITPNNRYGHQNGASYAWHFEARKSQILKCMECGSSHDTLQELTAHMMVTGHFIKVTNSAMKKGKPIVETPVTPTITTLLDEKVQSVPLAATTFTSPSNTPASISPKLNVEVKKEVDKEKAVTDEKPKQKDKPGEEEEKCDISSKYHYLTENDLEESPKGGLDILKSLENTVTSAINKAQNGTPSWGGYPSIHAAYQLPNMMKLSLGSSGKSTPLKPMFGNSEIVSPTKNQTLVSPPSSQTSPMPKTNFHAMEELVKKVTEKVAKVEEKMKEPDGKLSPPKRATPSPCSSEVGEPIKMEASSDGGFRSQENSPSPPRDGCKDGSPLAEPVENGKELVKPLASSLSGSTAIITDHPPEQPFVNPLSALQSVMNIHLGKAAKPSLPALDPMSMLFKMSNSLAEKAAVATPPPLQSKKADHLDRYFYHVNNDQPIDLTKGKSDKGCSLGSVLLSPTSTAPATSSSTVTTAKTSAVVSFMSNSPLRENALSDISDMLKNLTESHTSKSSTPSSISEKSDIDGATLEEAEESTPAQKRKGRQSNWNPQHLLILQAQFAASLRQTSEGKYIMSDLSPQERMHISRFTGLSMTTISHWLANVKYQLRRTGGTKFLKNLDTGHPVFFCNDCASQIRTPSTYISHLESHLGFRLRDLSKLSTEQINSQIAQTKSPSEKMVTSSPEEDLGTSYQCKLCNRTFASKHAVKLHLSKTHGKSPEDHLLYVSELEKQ
B2: Isoform 1 of Cyclin-dependent kinase 2-interacting protein (Homo sapiens), Q9BW66-1 (parent)
chain: MEAKTLGTVTPRKPVLSVSARKIKDNAADWHNLILKWETLNDAGFTTANNIANLKISLLNKDKIELDSSSPASKENEEKVCLEYNEELEKLCEELQATLDGLTKIQVKMEKLSSTTKGICELENYHYGEESKRPPLFHTWPTTHFYEVSHKLLEMYRKELLLKRTVAKELAHTGDPDLTLSYLSMWLHQPYVESDSRLHLESMLLETGHRAL
partner: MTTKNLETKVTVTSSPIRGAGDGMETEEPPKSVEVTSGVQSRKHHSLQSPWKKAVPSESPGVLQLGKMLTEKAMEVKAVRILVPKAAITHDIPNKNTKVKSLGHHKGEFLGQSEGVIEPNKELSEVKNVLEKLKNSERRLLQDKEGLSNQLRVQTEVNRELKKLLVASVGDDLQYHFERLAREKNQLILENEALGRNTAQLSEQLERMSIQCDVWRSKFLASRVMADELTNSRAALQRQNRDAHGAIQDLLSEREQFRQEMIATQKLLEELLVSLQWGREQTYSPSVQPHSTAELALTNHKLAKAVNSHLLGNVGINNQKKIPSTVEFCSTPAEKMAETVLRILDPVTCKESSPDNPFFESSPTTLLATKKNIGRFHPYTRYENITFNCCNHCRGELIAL
B3: Amyloid beta A4 precursor protein-binding family B member 1-interacting protein (Homo sapiens), Q7Z5R6-2 (parent)
chain: MGESSEDIDQMFSTLLGEMDLLTQSLGVDTLPPPDPNPPRAEFNYSVGFKDLNESLNALEDQDLDALMADLVADISEAEQRTIQAQKESLQNQHHSASLQASIFSGAASLGYGTNVAATGISQYEDDLPPPPADPVLDLPLPPPPPEPLSQVSMWDQRWQDHQPLLPITDVP
B4: Zinc finger and BTB domain-containing protein 49 (Homo sapiens), Q6ZSB9 (parent)
chain: MDPVATHSCHLLQQLHEQRIQGLLCDCMLVVKGVCFKAHKNVLAAFSQYFRSLFQNSSSQKNDVFHLDVKNVSGIGQILDFMYTSHLDLNQDNIQVMLDTAQCLQVQNVLSLCHTFLKSATVVQPPGMPCNSTLSLQSTLTPDATCVISENYPPHLLQECSADAQQNKTLDESHPHASPSVNRHHSAGEISKQAPDTSDGSCTELPFKQPNYYYKLRNFYSKQYHKHAAGPSQERVVEQPFAFSTSTDLTTVESQPCAVSHSECILESPEHLPSNFLAQPVNDSAPHPESDATCQQPVKQMRLKKAIHLKKLNFLKSQKYAEQVSEPKSDDGLTKRLESASKNTLEKASSQSAEEKESEEVVSCENFNCISETERPEDPAALEDQSQTLQSQRQYACELCGKPFKHPSNLELHKRSHTGEKPFECNICGKHFSQAGNLQTHLRRHSGEKPYICEICGKRFAASGDVQRHIIIHSGEKPHLCDICGRGFSNFSNLKEHKKTHTADKVFTCDECGKSFNMQRKLVKHRIRHTGERPYSCSACGKCFGGSGDLRRHVRTHTGEKPYTCEICNKCFTRSAVLRRHKKMHCKAGDESPDVLEELSQAIETSDLEKSQSSDSFSQDTSVTLMPVSVKLPVHPVENSVAEFDSHSGGSYCKLRSMIQPHGVSDQEKLSLDPGKLAKPQMQQTQPQAYAYSDVDTPAGGEPLQADGMAMIRSSLAALDNHGGDPLGSRASSTTYRNSEGQFFSSMTLWGLAMKTLQNENELDQ
B5: Pre-B-cell leukemia transcription factor-interacting protein 1 (Homo sapiens), Q96AQ6 (parent)
chain: MASCPDSDNSWVLAGSESLPVETLGPASRMDPESERALQAPHSPSKTDGKELAGTMDGEGTLFQTESPQSGSILTEETEVKGTLEGDVCGVEPPGPGDTVVQGDLQETTVVTGLGPDTQDLEGQSPPQSLPSTPKAAWIREEGRCSSSDDDTDVDMEGLRRRRGREAGPPQPMVPLAVENQAGGEGAGGELGISLNMCLLGALVLLGLGVLLFSGGLSESETGPMEEVERQVLPDPEVLEAVGDRQDGLREQLQAPVPPDSVPSLQNMGLLLDKLAKENQDIRLLQAQLQAQKEELQSLMHQPKGLEEENAQLRGALQQGEAFQRALESELQQLRARLQGLEADCVRGPDGVCLSGGRGPQGDKAIREQGPREQEPELSFLKQKEQLEAEAQALRQELERQRRLLGSVQQDLERSLQDASRGDPAHAGLAELGHRLAQKLQGLENWGQDPGVSANASKAWHQKSHFQNSREWSGKEKWWDGQRDRKAEHWKHKKEESGRERKKNWGGQEDREPAGRWKEGRPRVEESGSKKEGKRQGPKEPPRKSGSFHSSGEKQKQPRWREGTKDSHDPLPSWAELLRPKYRAPQGCSGVDECARQEGLTFFGTELAPVRQQELASLLRTYLARLPWAGQLTKELPLSPAFFGEDGIFRHDRLRFRDFVDALEDSLEEVAVQQTGDDDEVDDFEDFIFSHFFGDKALKKRSGKKDKHSQSPRAAGPREGHSHSHHHHHRG
B6: Arginine/serine-rich protein 1 (Homo sapiens), Q9BUV0 (parent)
chain: MSNYVNDMWPGSPQEKDSPSTSRSGGSSRLSSRSRSRSFSRSSRSHSRVSSRFSSRSRRSKSRSRSRRRHQRKYRRYSRSYSRSRSRSRSRRYRERRYGFTRRYYRSPSRYRSRSRSRSRSRGRSYCGRAYAIARGQRYYGFGRTVYPEEHSRWRDRSRTRSRSRTPFRLSEKDRMELLEIAKTNAAKALGTTNIDLPASLRTVPSAKETSRGIGVSSNGAKPELSEKVTEDGTRNPNEKPTQQRSIAFSSNNSVAKPIQKSAKAATEEASSRSPKIDQKKSPYGLWIPI
B7: Tuftelin-interacting protein 11 (Homo sapiens), Q9UBB9 (parent)
chain: B1 chain
partner: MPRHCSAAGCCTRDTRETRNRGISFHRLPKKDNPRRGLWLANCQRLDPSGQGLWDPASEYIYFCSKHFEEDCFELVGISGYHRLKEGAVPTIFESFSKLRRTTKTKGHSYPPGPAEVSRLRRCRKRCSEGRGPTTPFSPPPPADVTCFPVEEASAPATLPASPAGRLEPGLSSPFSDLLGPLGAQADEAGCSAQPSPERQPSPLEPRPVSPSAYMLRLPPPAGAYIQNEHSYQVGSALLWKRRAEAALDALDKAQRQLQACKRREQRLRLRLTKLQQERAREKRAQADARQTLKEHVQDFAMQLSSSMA
B8: Protein FAM9B (Homo sapiens), Q8IZU0 (parent)
chain: MAAWGKKHAGKDPVRDECEERNRFTETREEDVTDEHGEREPFAETDEHTGANTKKPEDTAEDLTAKRKRMKMDKTCSKTKNKSKHALRKKQLKRQKRDYIHSLKLLNVLEEYITDEQKEEEEEEGEEEELIRIFQEQQKKWQQYRSVRRERLKEMKLLRDQFVKALEDFEDLCDRVFSDEDSELDN
partner: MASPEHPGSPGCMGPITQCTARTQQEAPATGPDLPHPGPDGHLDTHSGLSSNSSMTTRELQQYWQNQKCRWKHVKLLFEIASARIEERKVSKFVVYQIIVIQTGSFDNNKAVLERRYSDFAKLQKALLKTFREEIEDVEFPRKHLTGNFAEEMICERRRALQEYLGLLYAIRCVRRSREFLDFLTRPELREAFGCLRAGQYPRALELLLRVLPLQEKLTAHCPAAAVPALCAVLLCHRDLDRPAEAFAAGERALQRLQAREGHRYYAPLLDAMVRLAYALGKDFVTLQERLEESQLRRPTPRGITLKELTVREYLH
B9: Thioredoxin-like protein 4B (Homo sapiens), Q9NX01 (parent)
chain: MSFLLPKLTSKKEVDQAIKSTAEKVLVLRFGRDEDPVCLQLDDILSKTSSDLSKMAAIYLVDVDQTAVYTQYFDISYIPSTVFFFNGQHMKVDYGSPDHTKFVGSFKTKQDFIDLIEVIYRGAMRGKLIVQSPIDPKNIPKYDLLYQDI

Variants of: B1
Conditions: with tsh3_human TSHZ3, Q63HK5
For S688L, the “effect of a mutation on the interaction” value was “with no effect”.
For R8Q, the “effect of a mutation on the interaction” value was “with no effect”.

Variants of: B2
Conditions: with go45_human BLZF1, Q9H2G9
With D177N the “effect of a mutation on the interaction” value was “with no effect”.

Variants of: B2
Conditions: with go45_human BLZF1, Q9H2G9
Remark: another data set of the same source
In the case of R164H, the “effect of a mutation on the interaction” value is reported as “with no effect”.

Variants of: B3
Conditions: with dpy30_human DPY30, Q9C005
Sequence of dpy30_human DPY30, Q9C005 (Q9C005 whole entry): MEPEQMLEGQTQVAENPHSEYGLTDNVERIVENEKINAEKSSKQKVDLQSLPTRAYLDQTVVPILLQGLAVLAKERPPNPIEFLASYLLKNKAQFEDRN
In the case of D134N, the “effect of a mutation on the interaction” value is reported as “with no effect”.

Variants of: B4
Conditions: with gopc_human GOPC
For E346K, the “effect of a mutation on the interaction” value was “with no effect”.
Y320S was tested, and the “effect of a mutation on the interaction” value was “with no effect”.
P627A was tested, and the “effect of a mutation on the interaction” value was “with no effect”.
In the case of C294R, the “effect of a mutation on the interaction” value is reported as “with no effect”.
With G701D the “effect of a mutation on the interaction” value was “with no effect”.

Variants of: B4
Conditions: with cep70_human CEP70, Q8NHQ1
Sequence of cep70_human CEP70, Q8NHQ1 (Q8NHQ1 whole entry): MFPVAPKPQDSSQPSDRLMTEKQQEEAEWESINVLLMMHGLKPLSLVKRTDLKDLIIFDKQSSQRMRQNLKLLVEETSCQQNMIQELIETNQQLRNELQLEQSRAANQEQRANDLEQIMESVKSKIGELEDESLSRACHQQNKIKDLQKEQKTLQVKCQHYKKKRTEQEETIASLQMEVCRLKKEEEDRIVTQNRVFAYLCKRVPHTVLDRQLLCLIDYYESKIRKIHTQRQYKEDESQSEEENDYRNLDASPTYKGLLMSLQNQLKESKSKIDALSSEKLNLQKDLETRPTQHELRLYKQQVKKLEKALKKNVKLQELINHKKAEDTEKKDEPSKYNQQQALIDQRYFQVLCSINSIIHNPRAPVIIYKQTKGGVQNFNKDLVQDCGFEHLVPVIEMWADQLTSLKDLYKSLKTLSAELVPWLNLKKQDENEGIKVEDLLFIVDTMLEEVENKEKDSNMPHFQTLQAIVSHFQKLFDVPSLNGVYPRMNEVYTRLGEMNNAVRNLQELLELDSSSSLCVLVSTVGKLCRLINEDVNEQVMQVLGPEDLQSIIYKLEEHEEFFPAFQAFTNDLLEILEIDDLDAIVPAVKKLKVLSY
With E346K the “effect of a mutation on the interaction” value was “with no effect”.
With Y320S the “effect of a mutation on the interaction” value was “disrupting interaction strength”.
For P627A, the “effect of a mutation on the interaction” value was “with no effect”.
For C294R, the “effect of a mutation on the interaction” value was “with no effect”.
In the case of G701D, the “effect of a mutation on the interaction” value is reported as “with no effect”.

Variants of: B5
Conditions: with sgta_human SGTA
With R499Q the “effect of a mutation on the interaction” value was “with no effect”.

Variants of: B5
Conditions: with mdfi_human MDFI
With G357D the “effect of a mutation on the interaction” value was “with no effect”.

Variants of: B6
Conditions: with clk2_human CLK2, P49760
Sequence of clk2_human CLK2, P49760 (P49760 whole entry, looked up): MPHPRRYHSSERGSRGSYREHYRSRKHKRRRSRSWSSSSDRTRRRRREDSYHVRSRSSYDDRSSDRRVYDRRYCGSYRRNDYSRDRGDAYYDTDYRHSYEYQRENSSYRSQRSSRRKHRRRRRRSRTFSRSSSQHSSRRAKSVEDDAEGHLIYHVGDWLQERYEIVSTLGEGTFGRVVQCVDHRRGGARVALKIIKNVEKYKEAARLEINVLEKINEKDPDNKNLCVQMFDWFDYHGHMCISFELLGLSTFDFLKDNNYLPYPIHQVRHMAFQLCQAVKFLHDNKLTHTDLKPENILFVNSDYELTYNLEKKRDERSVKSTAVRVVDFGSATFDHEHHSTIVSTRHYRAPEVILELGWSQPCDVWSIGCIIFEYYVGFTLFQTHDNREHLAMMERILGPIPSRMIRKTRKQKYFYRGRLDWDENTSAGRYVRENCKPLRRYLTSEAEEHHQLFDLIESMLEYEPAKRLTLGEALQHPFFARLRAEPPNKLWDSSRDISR
For V216A, the “effect of a mutation on the interaction” value was “with no effect”.

Variants of: B6
Conditions: with clk3_human CLK3, P49761
Sequence of clk3_human CLK3, P49761 (P49761 whole entry, looked up): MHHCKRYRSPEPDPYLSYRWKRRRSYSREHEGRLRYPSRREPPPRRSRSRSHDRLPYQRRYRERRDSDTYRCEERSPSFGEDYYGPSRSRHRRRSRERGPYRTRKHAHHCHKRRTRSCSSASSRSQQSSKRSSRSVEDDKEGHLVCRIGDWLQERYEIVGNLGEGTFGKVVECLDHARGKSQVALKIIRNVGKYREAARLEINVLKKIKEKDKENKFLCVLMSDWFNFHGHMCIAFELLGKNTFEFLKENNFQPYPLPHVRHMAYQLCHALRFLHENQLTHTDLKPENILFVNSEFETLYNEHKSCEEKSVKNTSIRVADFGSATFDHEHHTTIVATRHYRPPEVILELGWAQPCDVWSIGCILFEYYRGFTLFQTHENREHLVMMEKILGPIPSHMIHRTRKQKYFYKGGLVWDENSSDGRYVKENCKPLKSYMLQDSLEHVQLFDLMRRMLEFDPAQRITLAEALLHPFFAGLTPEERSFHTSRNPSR
V216A was tested, and the “effect of a mutation on the interaction” value was “with no effect”.

Variants of: B7
Conditions: with thap7_human THAP7, Q9BT49
For S688L, the “effect of a mutation on the interaction” value was “with no effect”.
With R8Q the “effect of a mutation on the interaction” value was “with no effect”.

Variants of: B8
Conditions: with snx20_human SNX20, Q7Z614
R23H was tested, and the “effect of a mutation on the interaction” value was “with no effect”.

Variants of: B9
Conditions: with itf2_human TCF4, P15884
Sequence of itf2_human TCF4, P15884 (P15884 whole entry): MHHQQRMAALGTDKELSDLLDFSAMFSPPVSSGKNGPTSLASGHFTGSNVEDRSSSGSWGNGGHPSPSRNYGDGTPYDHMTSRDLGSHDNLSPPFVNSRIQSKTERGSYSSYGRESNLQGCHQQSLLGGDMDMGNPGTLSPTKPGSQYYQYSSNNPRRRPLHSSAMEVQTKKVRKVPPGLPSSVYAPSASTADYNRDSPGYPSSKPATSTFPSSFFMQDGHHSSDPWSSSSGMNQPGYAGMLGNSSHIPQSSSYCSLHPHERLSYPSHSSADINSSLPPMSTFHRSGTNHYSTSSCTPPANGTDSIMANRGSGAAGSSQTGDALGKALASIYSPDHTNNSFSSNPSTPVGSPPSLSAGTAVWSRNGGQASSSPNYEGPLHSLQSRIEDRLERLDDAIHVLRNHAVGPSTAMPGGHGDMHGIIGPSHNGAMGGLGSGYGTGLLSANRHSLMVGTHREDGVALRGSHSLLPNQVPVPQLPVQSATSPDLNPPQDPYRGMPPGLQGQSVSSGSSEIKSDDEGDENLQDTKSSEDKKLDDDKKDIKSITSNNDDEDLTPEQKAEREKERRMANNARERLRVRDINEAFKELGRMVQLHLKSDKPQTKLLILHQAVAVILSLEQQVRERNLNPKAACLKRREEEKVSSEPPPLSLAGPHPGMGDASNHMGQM
For I119M, the “effect of a mutation on the interaction” value was “with no effect”.
